This note sets out measurements from paper PMC4972647 (Nature structural & molecular biology, 2016).

Common to all, as to assay: BLI
Assay [1] concerns the target NEDD8-conjugated Ubc12 (Ubc12(C111S)^N8-His) (human) (UniProt P61081).
The target in assay [2] is N-terminal GST-tagged GlyRS (human).
The target in assay [3] is T1, GST-APPBP1 (human, UniProt Q13564 1-534).
T1 sequence: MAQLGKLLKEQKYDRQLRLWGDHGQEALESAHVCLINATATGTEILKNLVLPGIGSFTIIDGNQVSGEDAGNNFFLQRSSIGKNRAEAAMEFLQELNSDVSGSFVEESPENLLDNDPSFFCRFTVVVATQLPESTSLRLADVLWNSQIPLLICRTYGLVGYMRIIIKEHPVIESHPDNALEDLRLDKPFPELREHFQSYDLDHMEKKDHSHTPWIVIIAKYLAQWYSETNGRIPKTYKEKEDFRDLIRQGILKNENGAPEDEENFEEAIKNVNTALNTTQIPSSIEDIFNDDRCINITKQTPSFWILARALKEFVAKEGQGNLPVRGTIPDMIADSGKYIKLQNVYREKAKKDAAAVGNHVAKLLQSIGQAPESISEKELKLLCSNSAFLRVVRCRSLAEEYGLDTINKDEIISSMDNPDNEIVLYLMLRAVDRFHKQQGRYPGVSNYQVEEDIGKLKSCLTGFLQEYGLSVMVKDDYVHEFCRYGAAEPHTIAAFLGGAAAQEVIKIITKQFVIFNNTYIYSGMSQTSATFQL

In general, Kd refers to the concentration at which binding is half-saturated.

In the case of G526R GlyRS (enzyme), the Kd in assay [1] was 39.5 nM.

Turning to “NEDD8-conjugated Ubc12 (Ubc12(C111S)^N8-His) (from UniProt P61081;Q15843) (complex)”, the Kd in assay [2] turned out to be 4.09 nM.

With Tag-free wild type human GlyRS (enzyme), in assay [1], the Kd amounted to 3.21 nM. Take “purified recombinant human NEDD8 (from UniProt Q15843 1-76) (natural protein)”: the dissociation constant (Kd) in assay [2] turned out to be 126 nM. Same read-out and setting: in the case of “purified recombinant human Ubc12 (from UniProt P61081 1-183) (enzyme)” it was 488 nM. Molecule “Δ84-93 GlyRS (F84-L93 replaced by GGG) (from UniProt P41250-2 94-685) (enzyme)” had a Kd in assay [1] of 27 nM. Same read-out and setting: in the case of “ΔInsertion1 GlyRS (F147-F224 replaced by GSGSGG) (from UniProt P41250-2 225-685) (enzyme)” it was 4.32 nM.

B1: ABD (V541-E685) of human GlyRS (domain or fragment)
chain: VREGDEQRTFFSFPAVVAPFKCSVLPLSQNQEFMPFVKELSEALTRHGVSHKVDDSSGSIGRRYARTDEIGVAFGVTIDFDTVNKTPHTATLRDRDSMRQIRAEISELPSIVQDLANGNITWADVEARYPLFEGQETGKKETIEE
As to B1, the binding result in assay [3] is on record as “binds”.
